Molecular target: p150^Glued subunit of dynactin (endogenous in melanophore extracts) (Xenopus laevis (endogenous in melanophores)) (UniProt Q6PCJ1)
Assay: co-IP

Chain of UniProt Q6PCJ1 (Q6PCJ1 whole entry): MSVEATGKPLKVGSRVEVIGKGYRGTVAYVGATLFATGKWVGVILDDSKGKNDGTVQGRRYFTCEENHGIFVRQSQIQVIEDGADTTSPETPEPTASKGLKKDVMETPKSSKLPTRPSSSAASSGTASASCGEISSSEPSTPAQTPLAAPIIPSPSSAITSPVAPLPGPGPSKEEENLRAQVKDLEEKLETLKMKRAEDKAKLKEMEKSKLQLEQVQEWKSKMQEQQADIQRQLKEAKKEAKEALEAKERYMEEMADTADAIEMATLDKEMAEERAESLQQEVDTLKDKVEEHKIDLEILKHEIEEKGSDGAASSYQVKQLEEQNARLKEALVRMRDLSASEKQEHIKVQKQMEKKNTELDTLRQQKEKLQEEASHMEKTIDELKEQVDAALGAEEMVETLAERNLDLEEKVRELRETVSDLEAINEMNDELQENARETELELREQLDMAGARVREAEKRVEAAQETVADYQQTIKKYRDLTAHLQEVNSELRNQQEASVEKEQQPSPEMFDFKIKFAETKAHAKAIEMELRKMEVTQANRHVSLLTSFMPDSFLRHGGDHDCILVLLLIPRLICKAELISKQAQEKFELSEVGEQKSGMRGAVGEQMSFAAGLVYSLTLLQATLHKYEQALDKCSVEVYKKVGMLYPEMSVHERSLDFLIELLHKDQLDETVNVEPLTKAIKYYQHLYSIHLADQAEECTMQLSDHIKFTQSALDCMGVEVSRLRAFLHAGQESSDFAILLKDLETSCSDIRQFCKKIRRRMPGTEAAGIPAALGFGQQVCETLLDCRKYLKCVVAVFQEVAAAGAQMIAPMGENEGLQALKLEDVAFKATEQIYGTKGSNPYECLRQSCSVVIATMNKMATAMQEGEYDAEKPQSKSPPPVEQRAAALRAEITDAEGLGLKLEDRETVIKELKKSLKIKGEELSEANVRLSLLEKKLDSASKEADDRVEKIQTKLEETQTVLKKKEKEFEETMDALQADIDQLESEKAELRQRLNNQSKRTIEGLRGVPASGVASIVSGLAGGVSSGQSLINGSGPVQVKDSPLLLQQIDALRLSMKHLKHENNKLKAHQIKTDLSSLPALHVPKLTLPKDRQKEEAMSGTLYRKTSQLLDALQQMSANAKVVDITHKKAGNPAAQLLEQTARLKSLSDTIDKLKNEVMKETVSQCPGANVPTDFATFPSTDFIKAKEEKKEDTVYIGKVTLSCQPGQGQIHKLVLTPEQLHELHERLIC

“kinesin II (Xenopus, endogenous in melanophore extracts) (complex)” was tested, and the percent of the total pool co-precipitated was 1%.
